Test results: patent publication US20220242939A1 (BIOARCTIC, published 2022)
Non-standard residues stand in square brackets, D forms with d. No end group written: not given here. Ahx = NCCCCCC(=O)O

How the values were obtained:
[1] = biological target: 6F4, monoclonal anti-L198 antibody; assay: inhibition ELISA; antibody at 0.05 ug/ml pre-incubated with the peptide in solution (4-fold dilutions from 10000 ng/ml), then on a plate coated with L198-BSA peptide; blank reduced OD 405 nm
Protocol: (§1) 0.5 μg/ml solution of N-terminal neo-epitope peptide L198 (SEQ ID NO:52) conjugated to BSA was prepared by dilution in PBS. 50 μl/well were added to an ELISA half-area 96 well microtiter plate, the plate was sealed with adhesive sealer and incubated over night at 4° C. After discarding the solution, the plates were blocked with protein-free blocking solution (Pierce) (150 μl/well) at room temperature for 90 min with shaking (900 rpm). The blocked plate was washed four times with washing buffer containing 0.28 mM NaH₂PO₄, 2.5 mM Na₂HPO₄, 150 mM NaCl, 0.1% TWEEN®-20 and 0.0075% Kathon CG.
(§2) Serial dilutions of each synthetic ApoE peptide were prepared by 4-fold dilution starting from 10000 ng/ml in 96 well storage plates (30 μl final volume). Each recombinant antibody to be tested was added (30 μl) to the serial dilutions of each of the synthetic ApoE peptides at a final concentration of 0.05 μg/ml per well. Samples were pre-incubated for 45 min at room temperature with shaking (900 rpm).
(§3) The pre-incubated samples were transferred (50 μl/well) to the blocked ELISA plates, and plates were incubated for 10 min at room temperature without shaking. Plates were washed as described above. Alkaline phosphatase conjugated anti-mouse IgG detection antibody (Mabtech, cat. no. 3310-4) was diluted 1:1000 and added to each plate (50 μl/well). The plate was sealed and incubated with shaking (900 rpm) for 45 min at room temperature and subsequently washed as described above. Alkaline phosphatase substrate (50 μl/well) was added to the plate and the optical density was read every 10 min at a wavelength of 405 nm for up to 120 min. The IC50 values were determined from a log inhibitor concentration response curve (FIG. 25).

[2] = biological target: 36A12, monoclonal anti-A199 antibody; assay: inhibition ELISA; antibody at 0.05 ug/ml pre-incubated with the peptide in solution (4-fold dilutions from 10000 ng/ml), then on a plate coated with A199-BSA peptide; blank reduced OD 405 nm
36A12, monoclonal anti-A199 antibody, sequence (VH, as listed by the source, chain 1 of 2): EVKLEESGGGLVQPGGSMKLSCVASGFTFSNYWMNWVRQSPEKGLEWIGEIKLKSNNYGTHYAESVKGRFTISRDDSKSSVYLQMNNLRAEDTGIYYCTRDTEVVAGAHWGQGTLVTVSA
36A12, monoclonal anti-A199 antibody, sequence (VL, as listed by the source, chain 2 of 2): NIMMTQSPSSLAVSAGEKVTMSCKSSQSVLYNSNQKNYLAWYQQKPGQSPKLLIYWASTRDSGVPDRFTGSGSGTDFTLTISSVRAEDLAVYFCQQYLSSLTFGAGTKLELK
Protocol: as §1, with “A199” for “L198”, “NO:51)” for “NO:52)”
as §2, with “purified monoclonal” for “recombinant”
as §3, with “29).” for “25).”

[3] = biological target: 38G9, monoclonal anti-A199 antibody; assay: as above
38G9, monoclonal anti-A199 antibody, sequence (VH, as listed by the source, chain 1 of 2): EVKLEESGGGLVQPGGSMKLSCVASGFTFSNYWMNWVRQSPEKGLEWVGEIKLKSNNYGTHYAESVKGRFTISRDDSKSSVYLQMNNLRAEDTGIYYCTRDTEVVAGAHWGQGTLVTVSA
38G9, monoclonal anti-A199 antibody, sequence (VL, as listed by the source, chain 2 of 2): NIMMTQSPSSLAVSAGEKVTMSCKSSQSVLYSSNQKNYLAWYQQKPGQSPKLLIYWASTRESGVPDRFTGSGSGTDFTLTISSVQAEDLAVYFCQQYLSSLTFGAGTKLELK
Protocol: as §1, with “A199” for “L198”, “NO:51)” for “NO:52)”
as §2, with “purified monoclonal” for “recombinant”
as §3, with “29).” for “25).”

[4] = biological target: T1, 7B10, recombinant IgG2c antibody; assay: inhibition ELISA, second protocol; antibody at 0.05 ug/ml pre-incubated with the peptide in solution (4-fold dilutions from 10000 ng/ml), then on a plate coated with G200-BSA peptide; blank reduced OD 405 nm
T1 construct: also called 7610
T1 sequence (VH, as listed by the source, chain 1 of 2): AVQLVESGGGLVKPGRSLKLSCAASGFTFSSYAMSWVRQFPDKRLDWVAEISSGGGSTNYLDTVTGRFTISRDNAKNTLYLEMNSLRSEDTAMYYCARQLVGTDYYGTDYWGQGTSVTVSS
T1 sequence (VL, as listed by the source, chain 2 of 2): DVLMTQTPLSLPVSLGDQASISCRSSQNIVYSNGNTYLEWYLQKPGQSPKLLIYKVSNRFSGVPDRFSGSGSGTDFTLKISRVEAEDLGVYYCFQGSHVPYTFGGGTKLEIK
Protocol: as §2, with “[…]” for “Serial”, “peptide, recombinant C-terminal ApoE fragment G200-HIS and full-length ApoE4” for “peptide”, “1000” for “10000”, “peptides, G200-HIS or full-length ApoE4” for “peptides”
as §3, with “for 25” for “for 10”, “every 15” for “every 10”, “(FIG. 17).” for “(FIG. 25).”
(§4) In addition, a second inhibition ELISA with the ApoE peptides conjugated to BSA was run, in which the starting concentration of the antigens in solution was increased 10-fold. i.e. the starting concentration of the N-terminal neo-epitope of synthetic ApoE peptides conjugated to BSA and starting at amino acid L198 (SEQ ID NO:52), A199 (SEQ ID NO:51) or G200 (SEQ ID NO:50), or to BSA-conjugated negative control peptide (SEQ ID NO:53), was 10000 ng/ml. Furthermore, a 4-fold serial dilution of antigen was used, the plates were blocked with protein-free blocking solution (Pierce) for 90 min, the pre-incubated samples were incubated on the coated plates for 10 min (instead of 25 min), and the optical density was read every 10 min (instead of every 15 min). IC50 values were determined from a log inhibitor concentration response curve (FIG. 20).

[5] = biological target: 7C7, recombinant IgG2c antibody; assay: as above
7C7, recombinant IgG2c antibody, sequence (VH, as listed by the source, chain 1 of 2): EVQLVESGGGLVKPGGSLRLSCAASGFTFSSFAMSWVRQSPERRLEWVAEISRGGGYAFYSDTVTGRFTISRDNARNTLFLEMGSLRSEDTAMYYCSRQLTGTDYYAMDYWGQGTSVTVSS
7C7, recombinant IgG2c antibody, sequence (VL, as listed by the source, chain 2 of 2): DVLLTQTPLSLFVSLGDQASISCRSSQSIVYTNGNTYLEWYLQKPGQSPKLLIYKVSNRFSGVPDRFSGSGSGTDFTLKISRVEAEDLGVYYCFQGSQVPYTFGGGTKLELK
Protocol: as §2, with “[…]” for “Serial”, “peptide, recombinant C-terminal ApoE fragment G200-HIS and full-length ApoE4” for “peptide”, “1000” for “10000”, “peptides, G200-HIS or full-length ApoE4” for “peptides”
as §3, with “for 25” for “for 10”, “every 15” for “every 10”, “(FIG. 17).” for “(FIG. 25).”
as §4

[6] = biological target: 17G4, recombinant IgG2c antibody; assay: as above
17G4, recombinant IgG2c antibody, sequence (VH, as listed by the source, chain 1 of 2): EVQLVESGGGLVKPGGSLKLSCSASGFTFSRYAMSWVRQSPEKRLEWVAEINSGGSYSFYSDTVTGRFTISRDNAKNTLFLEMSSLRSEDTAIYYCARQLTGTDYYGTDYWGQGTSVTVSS
17G4, recombinant IgG2c antibody, sequence (VL, as listed by the source, chain 2 of 2): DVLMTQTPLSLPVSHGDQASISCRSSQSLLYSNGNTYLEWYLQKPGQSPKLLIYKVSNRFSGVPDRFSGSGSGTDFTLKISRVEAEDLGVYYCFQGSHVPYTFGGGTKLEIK
Protocol: as §2, with “[…]” for “Serial”, “peptide, recombinant C-terminal ApoE fragment G200-HIS and full-length ApoE4” for “peptide”, “1000” for “10000”, “peptides, G200-HIS or full-length ApoE4” for “peptides”
as §3, with “for 25” for “for 10”, “every 15” for “every 10”, “(FIG. 17).” for “(FIG. 25).”
as §4

[7] = biological target: 23D5, recombinant IgG2c antibody; assay: as above
23D5, recombinant IgG2c antibody, sequence (VH, as listed by the source, chain 1 of 2): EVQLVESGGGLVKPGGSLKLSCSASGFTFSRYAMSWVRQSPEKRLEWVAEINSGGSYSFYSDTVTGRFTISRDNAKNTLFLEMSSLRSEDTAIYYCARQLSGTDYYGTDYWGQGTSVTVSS
Protocol: as §2, with “[…]” for “Serial”, “peptide, recombinant C-terminal ApoE fragment G200-HIS and full-length ApoE4” for “peptide”, “1000” for “10000”, “peptides, G200-HIS or full-length ApoE4” for “peptides”
as §3, with “for 25” for “for 10”, “every 15” for “every 10”, “(FIG. 17).” for “(FIG. 25).”
as §4

[8] = biological target: 28F2, recombinant IgG2c antibody; assay: as above
28F2, recombinant IgG2c antibody, sequence (VH, as listed by the source, chain 1 of 2): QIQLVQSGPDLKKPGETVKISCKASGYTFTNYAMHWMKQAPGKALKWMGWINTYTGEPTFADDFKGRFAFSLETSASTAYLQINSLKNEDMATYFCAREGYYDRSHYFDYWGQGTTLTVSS
28F2, recombinant IgG2c antibody, sequence (VL, as listed by the source, chain 2 of 2): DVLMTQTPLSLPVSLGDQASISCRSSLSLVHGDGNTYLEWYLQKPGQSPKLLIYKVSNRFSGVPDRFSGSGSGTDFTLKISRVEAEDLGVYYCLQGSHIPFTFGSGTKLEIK
Protocol: as §2, with “[…]” for “Serial”, “peptide, recombinant C-terminal ApoE fragment G200-HIS and full-length ApoE4” for “peptide”, “1000” for “10000”, “peptides, G200-HIS or full-length ApoE4” for “peptides”
as §3, with “for 25” for “for 10”, “every 15” for “every 10”, “(FIG. 17).” for “(FIG. 25).”
as §4

[9] = biological target: 6F4, monoclonal anti-L198 antibody; assay: inhibition ELISA: antigen in solution varied, antibody 6F4 at 0.05 µg/ml, plate coated with L198-BSA peptide
Protocol: as §1, §2
(§5) The pre-incubated samples were transferred (50 μl/well) to the blocked ELISA plates, and plates were incubated for 10 min at room temperature without shaking. […] Alkaline phosphatase substrate (50 μl/well) was added to the plate and the optical density was read every 10 min at a wavelength of 405 nm for up to 120 min. The IC50 values were determined from a log inhibitor concentration response curve (FIG. 25).

[10] = biological target: 8B3, monoclonal anti-L198 antibody; assay: inhibition ELISA: antigen in solution varied, antibody 8B3 at 0.05 µg/ml, plate coated with L198-BSA peptide
8B3, monoclonal anti-L198 antibody, sequence (VH, as listed by the source, chain 1 of 2): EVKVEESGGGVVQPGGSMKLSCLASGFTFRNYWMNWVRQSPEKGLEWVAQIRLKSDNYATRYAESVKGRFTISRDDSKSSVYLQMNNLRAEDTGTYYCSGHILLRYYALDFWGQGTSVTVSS
8B3, monoclonal anti-L198 antibody, sequence (VL, as listed by the source, chain 2 of 2): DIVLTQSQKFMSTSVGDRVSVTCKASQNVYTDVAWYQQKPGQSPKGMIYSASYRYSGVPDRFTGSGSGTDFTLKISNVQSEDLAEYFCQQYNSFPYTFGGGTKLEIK
Protocol: as §1, §2, §5

[11] = biological target: 12B1, monoclonal anti-L198 antibody; assay: inhibition ELISA: antigen in solution varied, antibody 12B1 at 0.05 µg/ml, plate coated with L198-BSA peptide
12B1, monoclonal anti-L198 antibody, sequence (VH, as listed by the source, chain 1 of 2): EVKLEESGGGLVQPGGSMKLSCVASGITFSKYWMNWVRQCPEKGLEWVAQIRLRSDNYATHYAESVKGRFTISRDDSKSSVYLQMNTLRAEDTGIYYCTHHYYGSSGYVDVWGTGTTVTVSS
12B1, monoclonal anti-L198 antibody, sequence (VL, as listed by the source, chain 2 of 2): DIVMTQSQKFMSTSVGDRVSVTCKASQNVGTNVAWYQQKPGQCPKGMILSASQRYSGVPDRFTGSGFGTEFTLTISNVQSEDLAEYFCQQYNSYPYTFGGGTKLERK
Protocol: as §1, §2, §5

[12] = biological target: 15F8, monoclonal anti-L198 antibody; assay: inhibition ELISA: antigen in solution varied, antibody 15F8 at 0.05 µg/ml, plate coated with L198-BSA peptide
15F8, monoclonal anti-L198 antibody, sequence (VH, as listed by the source, chain 1 of 2): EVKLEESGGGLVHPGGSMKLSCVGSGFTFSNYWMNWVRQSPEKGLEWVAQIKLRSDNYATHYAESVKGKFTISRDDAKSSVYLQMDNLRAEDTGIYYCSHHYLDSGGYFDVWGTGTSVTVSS
15F8, monoclonal anti-L198 antibody, sequence (VL, as listed by the source, chain 2 of 2): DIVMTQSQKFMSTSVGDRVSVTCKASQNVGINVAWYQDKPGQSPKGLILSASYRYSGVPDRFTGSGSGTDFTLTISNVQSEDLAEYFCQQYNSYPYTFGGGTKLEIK
Protocol: as §1, §2, §5

[13] = biological target: 15H11, monoclonal anti-L198 antibody; assay: inhibition ELISA: antigen in solution varied, antibody 15H11 at 0.05 µg/ml, plate coated with L198-BSA peptide
15H11, monoclonal anti-L198 antibody, sequence (VH, as listed by the source, chain 1 of 2): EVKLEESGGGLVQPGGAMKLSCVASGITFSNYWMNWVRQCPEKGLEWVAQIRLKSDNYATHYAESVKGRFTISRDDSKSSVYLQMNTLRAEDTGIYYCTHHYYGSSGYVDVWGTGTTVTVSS
15H11, monoclonal anti-L198 antibody, sequence (VL, as listed by the source, chain 2 of 2): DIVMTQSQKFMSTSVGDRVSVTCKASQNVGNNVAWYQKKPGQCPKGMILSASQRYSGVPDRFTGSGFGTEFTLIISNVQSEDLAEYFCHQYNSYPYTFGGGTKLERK
Protocol: as §1, §2, §5

[14] = biological target: T1, 7B10, recombinant IgG2c antibody; assay: inhibition ELISA; antibody at 0.05 ug/ml pre-incubated with the antigen in solution (3-fold dilutions from 1000 ng/ml), then on a plate coated with G200-BSA peptide; blank reduced OD 405 nm
Protocol: as §2, with “[…]” for “Serial”, “peptide, recombinant C-terminal ApoE fragment G200-HIS and full-length ApoE4” for “peptide”, “1000” for “10000”, “peptides, G200-HIS or full-length ApoE4” for “peptides”
as §3, with “for 25” for “for 10”, “every 15” for “every 10”, “(FIG. 17).” for “(FIG. 25).”

[15] = biological target: 7C7, recombinant IgG2c antibody; assay: as above
Protocol: as §2, with “[…]” for “Serial”, “peptide, recombinant C-terminal ApoE fragment G200-HIS and full-length ApoE4” for “peptide”, “1000” for “10000”, “peptides, G200-HIS or full-length ApoE4” for “peptides”
as §3, with “for 25” for “for 10”, “every 15” for “every 10”, “(FIG. 17).” for “(FIG. 25).”

[16] = biological target: 17G4, recombinant IgG2c antibody; assay: as above
Protocol: as §2, with “[…]” for “Serial”, “peptide, recombinant C-terminal ApoE fragment G200-HIS and full-length ApoE4” for “peptide”, “1000” for “10000”, “peptides, G200-HIS or full-length ApoE4” for “peptides”
as §3, with “for 25” for “for 10”, “every 15” for “every 10”, “(FIG. 17).” for “(FIG. 25).”

[17] = biological target: 23D5, recombinant IgG2c antibody; assay: as above
Protocol: as §2, with “[…]” for “Serial”, “peptide, recombinant C-terminal ApoE fragment G200-HIS and full-length ApoE4” for “peptide”, “1000” for “10000”, “peptides, G200-HIS or full-length ApoE4” for “peptides”
as §3, with “for 25” for “for 10”, “every 15” for “every 10”, “(FIG. 17).” for “(FIG. 25).”

[18] = biological target: 28F2, recombinant IgG2c antibody; assay: as above
Protocol: as §2, with “[…]” for “Serial”, “peptide, recombinant C-terminal ApoE fragment G200-HIS and full-length ApoE4” for “peptide”, “1000” for “10000”, “peptides, G200-HIS or full-length ApoE4” for “peptides”
as §3, with “for 25” for “for 10”, “every 15” for “every 10”, “(FIG. 17).” for “(FIG. 25).”

[19] = biological target: 63F6, monoclonal anti-A199 antibody; assay: inhibition ELISA; antibody at 0.05 ug/ml pre-incubated with the peptide in solution (4-fold dilutions from 10000 ng/ml), then on a plate coated with A199-BSA peptide; blank reduced OD 405 nm
63F6, monoclonal anti-A199 antibody, sequence (VH, as listed by the source, chain 1 of 2): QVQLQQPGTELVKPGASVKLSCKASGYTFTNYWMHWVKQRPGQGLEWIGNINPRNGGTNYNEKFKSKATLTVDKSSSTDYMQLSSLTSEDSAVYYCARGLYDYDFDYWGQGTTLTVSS
63F6, monoclonal anti-A199 antibody, sequence (VL, as listed by the source, chain 2 of 2): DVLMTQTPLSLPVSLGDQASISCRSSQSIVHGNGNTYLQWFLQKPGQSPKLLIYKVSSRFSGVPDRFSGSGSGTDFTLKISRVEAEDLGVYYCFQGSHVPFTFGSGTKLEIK
Protocol: as §1, with “A199” for “L198”, “NO:51)” for “NO:52)”
as §2, with “purified monoclonal” for “recombinant”
as §3, with “29).” for “25).”

6F4, monoclonal anti-L198 antibody, sequence (VH, as listed by the source, chain 1 of 2): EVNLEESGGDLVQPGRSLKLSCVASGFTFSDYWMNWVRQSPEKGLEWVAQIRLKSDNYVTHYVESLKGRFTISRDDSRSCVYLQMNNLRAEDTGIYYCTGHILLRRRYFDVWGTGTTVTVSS
6F4, monoclonal anti-L198 antibody, sequence (VL, as listed by the source, chain 2 of 2): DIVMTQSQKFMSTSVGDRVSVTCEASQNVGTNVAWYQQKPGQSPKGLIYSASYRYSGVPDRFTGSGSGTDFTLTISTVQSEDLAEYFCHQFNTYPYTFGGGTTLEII

B1: negative control peptide AATVGSLAGQPLQER-Acp-C (SEQ ID NO:53) conjugated to BSA (peptide)
peptide: AATVGSLAGQPLQER[Ahx]C
modifications: not fully specified (residue 17); printed as AATVGSLAGQPLQER-Acp-C; also: C-terminal Cys conjugated to BSA carrier
notes: BSA carrier; also called 192-206 BSA-conjugated peptide
B1: no binding (tested: 10000 ng/ml) [1]; no binding (tested: 10000 ng/ml) [2]; no binding (tested: 10000 ng/ml) [3]. B1: no binding (tested: 10000 ng/ml) [4]; no binding (tested: 10000 ng/ml) [5]; no binding (tested: 10000 ng/ml) [6]. B1: no binding (tested: 10000 ng/ml) [7]; no binding (tested: 10000 ng/ml) [8].

B2: L198 N-terminal neo-epitope peptide LAGQPL-Acp-C (SEQ ID NO:52) conjugated to BSA (peptide)
peptide: LAGQPL[Ahx]C
modifications: not fully specified (residue 8); printed as LAGQPL-Acp-C; also: C-terminal Cys conjugated to BSA carrier
notes: BSA carrier; also called L198-BSA peptide
B2 showed an IC50 [9] of 8.2 ng/mL, an IC50 [10] of 3.1 ng/mL and an IC50 [11] of 4.8 ng/mL. For the same binder, the IC50 [12] was 6.5 ng/mL, the IC50 [13] was 4.5 ng/mL and the binding result [14] was “no binding (tested: 1000 ng/ml)”. B2: no binding (tested: 1000 ng/ml) [15]; no binding (tested: 1000 ng/ml) [16]; no binding (tested: 1000 ng/ml) [17]. B2: no binding (tested: 1000 ng/ml) [18]; no binding (tested: 10000 ng/ml) [2]; no binding (tested: 10000 ng/ml) [3]. B2: no binding (tested: 10000 ng/ml) [19].
